The assay has as its target huCdc7 fused to DNA-binding domain of Gal4 (human). In words: yeast two-hybrid assay, lacZ activity.

In turn, “H37 deletion derivative ΔP2 fused to Gal4 activation domain (from UniProt Q9UBU7 1-431)” returned an interaction relative to the full-length clone of 10%.

The record behind these values is patent publication US6897054.
